{"source": "patent US20160272683A1", "about": "(Novo Nordisk, published 2016)", "binders": {"B1": {"name": "[N-terminal(C18 diacid-gGlu-2xOEG), des1, 4G, 9V, 15Q, 21Q, 23Y, 30S, 31G, 32T, 33Y]mimylin (peptide)", "peptide": "{C18 diacid-γGlu-AEEA-AEEA}-ASGLSTAVLGRLSQELHELQTYPRTETGSGTY-NH2", "SMILES": "CC(C)C[C@H](NC(=O)CNC(=O)[C@H](CO)NC(=O)[C@H](C)NC(=O)COCCOCCNC(=O)COCCOCCNC(=O)CC[C@H](NC(=O)CCCCCCCCCCCCCCCCC(=O)O)C(=O)O)C(=O)N[C@@H](CO)C(=O)N[C@H](C(=O)N[C@@H](C)C(=O)N[C@H](C(=O)N[C@@H](CC(C)C)C(=O)NCC(=O)N[C@@H](CCCNC(=N)N)C(=O)N[C@@H](CC(C)C)C(=O)N[C@@H](CO)C(=O)N[C@@H](CCC(N)=O)C(=O)N[C@@H](CCC(=O)O)C(=O)N[C@@H](CC(C)C)C(=O)N[C@@H](Cc1c[nH]cn1)C(=O)N[C@@H](CCC(=O)O)C(=O)N[C@@H](CC(C)C)C(=O)N[C@@H](CCC(N)=O)C(=O)N[C@H](C(=O)N[C@@H](Cc1ccc(O)cc1)C(=O)N1CCC[C@H]1C(=O)N[C@@H](CCCNC(=N)N)C(=O)N[C@H](C(=O)N[C@@H](CCC(=O)O)C(=O)N[C@H](C(=O)NCC(=O)N[C@@H](CO)C(=O)NCC(=O)N[C@H](C(=O)N[C@@H](Cc1ccc(O)cc1)C(N)=O)[C@@H](C)O)[C@@H](C)O)[C@@H](C)O)[C@@H](C)O)C(C)C)[C@@H](C)O"}, "B2": {"name": "[N-terminal(C20 diacid-gGlu), des1, 2L, 4G, 9V, 21S, 23Y, 30S, 31G, 32T, 33Y]mimylin (peptide)", "peptide": "{C20 diacid-γGlu}-LSGLSTAVLGRLSAELHELSTYPRTETGSGTY-NH2", "SMILES": "CC(C)C[C@H](NC(=O)CC[C@H](NC(=O)CCCCCCCCCCCCCCCCCCC(=O)O)C(=O)O)C(=O)N[C@@H](CO)C(=O)NCC(=O)N[C@@H](CC(C)C)C(=O)N[C@@H](CO)C(=O)N[C@H](C(=O)N[C@@H](C)C(=O)N[C@H](C(=O)N[C@@H](CC(C)C)C(=O)NCC(=O)N[C@@H](CCCNC(=N)N)C(=O)N[C@@H](CC(C)C)C(=O)N[C@@H](CO)C(=O)N[C@@H](C)C(=O)N[C@@H](CCC(=O)O)C(=O)N[C@@H](CC(C)C)C(=O)N[C@@H](Cc1c[nH]cn1)C(=O)N[C@@H](CCC(=O)O)C(=O)N[C@@H](CC(C)C)C(=O)N[C@@H](CO)C(=O)N[C@H](C(=O)N[C@@H](Cc1ccc(O)cc1)C(=O)N1CCC[C@H]1C(=O)N[C@@H](CCCNC(=N)N)C(=O)N[C@H](C(=O)N[C@@H](CCC(=O)O)C(=O)N[C@H](C(=O)NCC(=O)N[C@@H](CO)C(=O)NCC(=O)N[C@H](C(=O)N[C@@H](Cc1ccc(O)cc1)C(N)=O)[C@@H](C)O)[C@@H](C)O)[C@@H](C)O)[C@@H](C)O)C(C)C)[C@@H](C)O"}, "B3": {"name": "[N-terminal(C20 diacid-gGlu), des1, 4G, 9V, 15Q, 21Q, 23Y, 25P, 30S, 31Q, 32T, 33Y]mimylin (peptide)", "peptide": "{C20 diacid-γGlu}-ASGLSTAVLGRLSQELHELQTYPPTETGSQTY-NH2", "SMILES": "CC(C)C[C@H](NC(=O)CNC(=O)[C@H](CO)NC(=O)[C@H](C)NC(=O)CC[C@H](NC(=O)CCCCCCCCCCCCCCCCCCC(=O)O)C(=O)O)C(=O)N[C@@H](CO)C(=O)N[C@H](C(=O)N[C@@H](C)C(=O)N[C@H](C(=O)N[C@@H](CC(C)C)C(=O)NCC(=O)N[C@@H](CCCNC(=N)N)C(=O)N[C@@H](CC(C)C)C(=O)N[C@@H](CO)C(=O)N[C@@H](CCC(N)=O)C(=O)N[C@@H](CCC(=O)O)C(=O)N[C@@H](CC(C)C)C(=O)N[C@@H](Cc1c[nH]cn1)C(=O)N[C@@H](CCC(=O)O)C(=O)N[C@@H](CC(C)C)C(=O)N[C@@H](CCC(N)=O)C(=O)N[C@H](C(=O)N[C@@H](Cc1ccc(O)cc1)C(=O)N1CCC[C@H]1C(=O)N1CCC[C@H]1C(=O)N[C@H](C(=O)N[C@@H](CCC(=O)O)C(=O)N[C@H](C(=O)NCC(=O)N[C@@H](CO)C(=O)N[C@@H](CCC(N)=O)C(=O)N[C@H](C(=O)N[C@@H](Cc1ccc(O)cc1)C(N)=O)[C@@H](C)O)[C@@H](C)O)[C@@H](C)O)[C@@H](C)O)C(C)C)[C@@H](C)O"}, "B4": {"name": "[N-terminal(C20 diacid-gGlu), des1, 4G, 8L, 9V, 15Q, 21Q, 23Y, 30S, 31Q, 32T, 33Y]mimylin (peptide)", "peptide": "{C20 diacid-γGlu}-ASGLSTLVLGRLSQELHELQTYPRTETGSQTY-NH2", "SMILES": "CC(C)C[C@H](NC(=O)CNC(=O)[C@H](CO)NC(=O)[C@H](C)NC(=O)CC[C@H](NC(=O)CCCCCCCCCCCCCCCCCCC(=O)O)C(=O)O)C(=O)N[C@@H](CO)C(=O)N[C@H](C(=O)N[C@@H](CC(C)C)C(=O)N[C@H](C(=O)N[C@@H](CC(C)C)C(=O)NCC(=O)N[C@@H](CCCNC(=N)N)C(=O)N[C@@H](CC(C)C)C(=O)N[C@@H](CO)C(=O)N[C@@H](CCC(N)=O)C(=O)N[C@@H](CCC(=O)O)C(=O)N[C@@H](CC(C)C)C(=O)N[C@@H](Cc1c[nH]cn1)C(=O)N[C@@H](CCC(=O)O)C(=O)N[C@@H](CC(C)C)C(=O)N[C@@H](CCC(N)=O)C(=O)N[C@H](C(=O)N[C@@H](Cc1ccc(O)cc1)C(=O)N1CCC[C@H]1C(=O)N[C@@H](CCCNC(=N)N)C(=O)N[C@H](C(=O)N[C@@H](CCC(=O)O)C(=O)N[C@H](C(=O)NCC(=O)N[C@@H](CO)C(=O)N[C@@H](CCC(N)=O)C(=O)N[C@H](C(=O)N[C@@H](Cc1ccc(O)cc1)C(N)=O)[C@@H](C)O)[C@@H](C)O)[C@@H](C)O)[C@@H](C)O)C(C)C)[C@@H](C)O"}, "B5": {"name": "[N-terminal(C20 diacid-gGlu), des1, 4G, 9V, 15Q, 21Q, 23Y, 30S, 31A, 32T, 33Y]mimylin (peptide)", "peptide": "{C20 diacid-γGlu}-ASGLSTAVLGRLSQELHELQTYPRTETGSATY-NH2", "SMILES": "CC(C)C[C@H](NC(=O)CNC(=O)[C@H](CO)NC(=O)[C@H](C)NC(=O)CC[C@H](NC(=O)CCCCCCCCCCCCCCCCCCC(=O)O)C(=O)O)C(=O)N[C@@H](CO)C(=O)N[C@H](C(=O)N[C@@H](C)C(=O)N[C@H](C(=O)N[C@@H](CC(C)C)C(=O)NCC(=O)N[C@@H](CCCNC(=N)N)C(=O)N[C@@H](CC(C)C)C(=O)N[C@@H](CO)C(=O)N[C@@H](CCC(N)=O)C(=O)N[C@@H](CCC(=O)O)C(=O)N[C@@H](CC(C)C)C(=O)N[C@@H](Cc1c[nH]cn1)C(=O)N[C@@H](CCC(=O)O)C(=O)N[C@@H](CC(C)C)C(=O)N[C@@H](CCC(N)=O)C(=O)N[C@H](C(=O)N[C@@H](Cc1ccc(O)cc1)C(=O)N1CCC[C@H]1C(=O)N[C@@H](CCCNC(=N)N)C(=O)N[C@H](C(=O)N[C@@H](CCC(=O)O)C(=O)N[C@H](C(=O)NCC(=O)N[C@@H](CO)C(=O)N[C@@H](C)C(=O)N[C@H](C(=O)N[C@@H](Cc1ccc(O)cc1)C(N)=O)[C@@H](C)O)[C@@H](C)O)[C@@H](C)O)[C@@H](C)O)C(C)C)[C@@H](C)O"}}, "note": "Numbered stars: 1 amine (or outer) side, 2 acyl side, 3 side chain; on linkers, the order of the positions; unused ones are H or OH. * marks the point of attachment. C20 diacid = O=C(O)CCCCCCCCCCCCCCCCCCC(=O)*; C18 diacid = O=C(O)CCCCCCCCCCCCCCCCC(=O)*; γGlu = O=C(O)[C@H](CCC(=O)[*:2])N[*:1]; AEEA = NCCOCCOCC(=O)O", "data": [{"biological_target": "T1, human calcitonin receptor (human, UniProt P30988 25-474)", "T1 sequence (looked up)": "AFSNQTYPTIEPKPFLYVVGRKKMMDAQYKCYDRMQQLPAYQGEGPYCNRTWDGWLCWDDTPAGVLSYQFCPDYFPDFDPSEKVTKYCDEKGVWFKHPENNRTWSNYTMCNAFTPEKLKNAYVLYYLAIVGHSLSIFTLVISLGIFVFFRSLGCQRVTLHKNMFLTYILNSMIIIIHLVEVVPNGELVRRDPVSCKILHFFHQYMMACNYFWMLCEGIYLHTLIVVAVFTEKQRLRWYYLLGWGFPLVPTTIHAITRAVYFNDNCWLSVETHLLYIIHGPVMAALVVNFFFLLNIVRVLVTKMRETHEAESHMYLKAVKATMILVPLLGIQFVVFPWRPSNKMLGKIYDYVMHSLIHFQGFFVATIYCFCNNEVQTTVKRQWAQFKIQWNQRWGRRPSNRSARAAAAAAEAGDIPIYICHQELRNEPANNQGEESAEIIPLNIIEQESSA", "experiment": "cell-based or functional assay", "units": {"hCTR funct. EC50 (pM)": "pM"}, "values": [{"binder": "B1", "hCTR funct. EC50 (pM)": 22}, {"binder": "B2", "hCTR funct. EC50 (pM)": 28}, {"binder": "B3", "hCTR funct. EC50 (pM)": 57}, {"binder": "{C20 diacid-γGlu}-ASGLSTATLGRLSQELHELQTYPRTETGSGTY-NH2", "note": "[[N-terminal(C20 diacid-gGlu), des1, 4G, 9T, 15Q, 21Q, 23Y, 30S, 31G, 32T, 33Y]mimylin]", "hCTR funct. EC50 (pM)": 34}, {"binder": "B4", "hCTR funct. EC50 (pM)": 40}, {"binder": "B5", "hCTR funct. EC50 (pM)": 52}]}, {"biological_target": "T2, human amylin 3(a) receptor (human calcitonin receptor co-expressed with RAMP-3) (human, UniProt P30988 25-474; O60896 24-148, limits assumed)", "T2 sequence (looked up) 1": "T1 sequence (looked up)", "T2 sequence (looked up) 2": "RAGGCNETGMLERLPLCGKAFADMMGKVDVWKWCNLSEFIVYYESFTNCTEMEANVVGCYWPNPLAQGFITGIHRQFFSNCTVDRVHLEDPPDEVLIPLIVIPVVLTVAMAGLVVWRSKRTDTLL", "experiment": "cell-based or functional assay", "units": {"hAmylin-R funct. EC50 (pM)": "pM"}, "values": [{"binder": "B1", "hAmylin-R funct. EC50 (pM)": 50}, {"binder": "B2", "hAmylin-R funct. EC50 (pM)": 24}, {"binder": "B3", "hAmylin-R funct. EC50 (pM)": 70}, {"binder": "{C20 diacid-γGlu}-ASGLSTATLGRLSQELHELQTYPRTETGSGTY-NH2", "note": "[[N-terminal(C20 diacid-gGlu), des1, 4G, 9T, 15Q, 21Q, 23Y, 30S, 31G, 32T, 33Y]mimylin]", "hAmylin-R funct. EC50 (pM)": 40}, {"binder": "B4", "hAmylin-R funct. EC50 (pM)": 52}, {"binder": "B5", "hAmylin-R funct. EC50 (pM)": 53}]}]}
